Source: paper PMC4227786

Assays:
14-3-3θ = 14-3-3θ (UniProt P27348); experiment: co-immunoprecipitation; settings: reference: wild type hnRNPA1; sites S4,S6
14-3-3σ = 14-3-3σ (UniProt P31947); experiment: co-immunoprecipitation; settings: reference: wild type hnRNPA1; sites S4,S6

binding against the reference (14-3-3θ): lost
binding against the reference (14-3-3σ): lost
Substance: hnRNPA1 (from UniProt P09651) S4AS6A
